Measured values taken from patent publication US20110318339A1 (FABRUS, published 2011).
Residue numbers refer to the chain shown, from its start. In names and notes the source's numbering stands.

B1: Fab VH5-51_IGHD5-18*01>3_IGHJ4*01 G100K/G104T G24T/S28R/G35V & V3-4_IGLJ1*01 V91L/S96P S52P (Fab, V domains shown)
VH: EVQLVQSGAEVKKPGESLKISCKTSGYRFTSYWIVWVRQMPGKGLEWMGIIYPGDSDTRYSPSFQGQVTISADKSISTAYLQWSSLKASDTAMYYCARRKYSYTYDYFDYWGQGTLVTVSS
VL: QTVVTQEPSFSVSPGGTVTLTCGLSSGSVSTSYYPSWYQQTPGQAPRTLIYPTNTRSSGVPDRFSGSILGNKAALTITGAQADDESDYYCLLYMGPGISYVFGTGTKVTVL
notes: Fab made in E. coli: VH on CH1 with His6 and Flag tags (Plasmid A), VL on lambda CL (Plasmid E); also called H: KT TRV & L: LP S52P
B2: Fab VH5-51_IGHD5-18*01>3_IGHJ4*01 G100K/G104T G24T/S28R/G35V & V3-4_IGLJ1*01 V91L/S96P S52F (Fab, V domains shown)
VH: B1 VH
VL: B1 VL with P52F
notes: Fab made in E. coli: VH on CH1 with His6 and Flag tags (Plasmid A), VL on lambda CL (Plasmid E); also called H: KT TRV & L: LP S52F
B3: Fab VH5-51_IGHD5-18*01>3_IGHJ4*01 G100K/G104T G24T/S28R/G35V & V3-4_IGLJ1*01 V91L/S96P S52N (Fab, V domains shown)
VH: B1 VH
VL: B1 VL with P52N
notes: Fab made in E. coli: VH on CH1 with His6 and Flag tags (Plasmid A), VL on lambda CL (Plasmid E); also called H: KT TRV & L: LP S52N
B4: Fab VH5-51_IGHD5-18*01>3_IGHJ4*01 G100K/G104T G24T/S28R/G35V & V3-4_IGLJ1*01 V91L/S96P S52H (Fab, V domains shown)
VH: B1 VH
VL: B1 VL with P52H
notes: Fab made in E. coli: VH on CH1 with His6 and Flag tags (Plasmid A), VL on lambda CL (Plasmid E); also called H: KT TRV & L: LP S52H
B5: Fab VH1-46_IGHD6-6*01_IGHJ1*01 S102A/S103P/S104F/H111F G56H & L6_IGKJ1*01 (Fab, V domains shown)
VH: QVQLVQSGAEVKKPGASVKVSCKASGYTFTSYYMHWVRQAPGQGLEWMGIINPSGHSTSYAQKFQGRVTMTRDTSTSTVYMELSSLRSEDTAVYYCAREEYAPFSAEYFQFWGQGTLVTVSS
VL: not shown
notes: Fab made in E. coli: VH on CH1 with His6 and Flag tags (Plasmid A), VL on kappa CL (Plasmid C); also called H: APFF G56H & L: wt
B6: Fab VH1-46_IGHD6-6*01_IGHJ1*01 S102A/S103P/S104F/H111F I51A/N52L/S54T/G56H & L6_IGKJ1*01 S28N/S30D/S31H S52L/A55S (Fab, V domains shown)
VH: B5 VH with I51A, N52L, S54T
VL: EIVLTQSPATLSLSPGERATLSCRASQNVDHYLAWYQQKPGQAPRLLIYDALNRSTGIPARFSGSGSGTDFTLTISSLEPEDFAVYYCQQRSNWPPWTFGQGTKVEIKR
notes: Fab made in E. coli: VH on CH1 with His6 and Flag tags (Plasmid A), VL on kappa CL (Plasmid C); also called H: APFF ALTH & L: NDH LS
B7: Fab VH1-46_IGHD6-6*01_IGHJ1*01 S102A/S103P/S104F/H111F I51A/N52L/S54T/G56H & L6_IGKJ1*01 S28N/S30D/S31H S52L/A55G (Fab, V domains shown)
VH: B5 VH with I51A, N52L, S54T
VL: B6 VL with S55G
notes: Fab made in E. coli: VH on CH1 with His6 and Flag tags (Plasmid A), VL on kappa CL (Plasmid C); also called H: APFF ALTH & L: NDH LG
B8: Fab VH1-46_IGHD6-6*01_IGHJ1*01 S102A/S103P/S104F/H111F N52L/S54T/G56H & L6_IGKJ1*01 S28N/S30D/S31H (Fab, V domains shown)
VH: B5 VH with N52L, S54T
VL: B6 VL with L52S, S55A
notes: Fab made in E. coli: VH on CH1 with His6 and Flag tags (Plasmid A), VL on kappa CL (Plasmid C); also called H: APFF LTH & L: NDH
B9: Fab VH1-46_IGHD6-6*01_IGHJ1*01 S102A/S103P/S104F/H111F N52L/S54T/G56H & L6_IGKJ1*01 S28N/S30D/S31H S52L/A55G (Fab, V domains shown)
VH: B5 VH with N52L, S54T
VL: B6 VL with S55G
notes: Fab made in E. coli: VH on CH1 with His6 and Flag tags (Plasmid A), VL on kappa CL (Plasmid C); also called H: APFF LTH & L: NDH LG
B10: Fab VH1-46_IGHD6-6*01_IGHJ1*01 S102A/S103P/S104F/H111F N52L/S54T/G56H & L6_IGKJ1*01 S28N/S30D/S31H S52L/A55S (Fab, V domains shown)
VH: B5 VH with N52L, S54T
VL: B6 VL
notes: Fab made in E. coli: VH on CH1 with His6 and Flag tags (Plasmid A), VL on kappa CL (Plasmid C); also called H: APFF LTH & L: NDH LS
B11: Fab VH1-46_IGHD6-6*01_IGHJ1*01 S102A/S103P/S104F/H111F I51A/N52L/S54T/G56H & L6_IGKJ1*01 S28N/S30D/S31H (Fab, V domains shown)
VH: B5 VH with I51A, N52L, S54T
VL: B6 VL with L52S, S55A
notes: Fab made in E. coli: VH on CH1 with His6 and Flag tags (Plasmid A), VL on kappa CL (Plasmid C); also called H: APFF ALTH & L: NDH

Tests used:
[1] = target: T1, recombinant human DLL4 (Cat# 1506-D4/CF, R&D Systems) (human, UniProt Q9NR61 27-529); assay: ELISA, DLL4 coated, Fab 25 nM
T1 construct: Bought protein; also called hDLL4; rHuman DLL4
Method: (§1) The plate was blocked by adding 1% BSA in Tris-buffered Saline Tween (TBST) and incubating for 1 hour at room temperature followed by washing 2 times with 150 μl TBST. A Fab antibody was serially diluted in 1% BSA in PBS. A 50 μl aliquot of each serial dilution was added, in triplicate, to each well and the plate was incubated for 1 hour at room temperature followed by washing 2 times with TBST. 50 μl of either goat anti-human kappa HRP conjugated secondary antibody (Cat # A7164-1 mL, Sigma-Aldrich) or goat anti-human lambda HRP conjugated secondary antibody (Cat # L1645-1 ml, Sigma-Aldrich), diluted 1:1000 in 1% BSA in PBS, was added to each well and the plate was incubated for 30 minutes at room temperature followed by washing 3 times with 200 μl TBST. Finally, 50 μl TMB one-component reagent (Cat # TMBW-1000-01, BioFax) was added and allowed to develop for 2 minutes at room temperature. The reaction was immediately halted by the addition of 50 μl 0.5M H₂SO₄ and the absorbance at 450 nm was measured using an ELISA plate reader.

[2] = target: T1, recombinant human DLL4 (Cat# …); assay: ELISA, DLL4 coated, Fab 50 nM
Method: (§2) In this example, an ELISA binding assay was used to assess the dose-dependent binding of Fab antibodies to recombinant human DLL4 and recombinant mouse DLL4.
as §1

[3] = target: T1, recombinant human DLL4 (Cat# …); assay: ELISA, DLL4 coated, Fab 100 nM
Method: as §2, §1

[4] = target: T1, recombinant human DLL4 (Cat# …); assay: ELISA, DLL4 coated, Fab 12.5 nM
Method: as §2, §1

[5] = target: T1, recombinant human DLL4 (Cat# …); assay: SPR (ProteOn), hDLL4 amine-coupled on chip
Method: In this example, the binding affinities of selected anti-DLL4 Fabs to recombinant human DLL4 (hDLL4, Cat# 1506-D4/CF, R&D Systems) were analyzed using Surface Plasmon Resonance (SPR) (Biosensor Tools, Salt Lake City, Utah). The Fabs analyzed include germline-derived antibodies and germline-modified DLL4 antibodies. Recombinant hDLL4 was immobilized on a SPR chip using amine coupling at three different surface densities. The Fabs were serially diluted 3-fold, with an initial concentration of 1 μM. Binding studies were run on a ProteOn system using a GLM sensor chip in 10 mM HEPES, pH 7.4, 150 mM NaCl, 0.01% Tween-20, and 0.1 mg/ml BSA at 25° C. The response data from each surface was globally fit to determine the binding constants.

[6] = target: T1, recombinant human DLL4 (Cat# …); assay: ELISA, DLL4 coated, Fab 20 nM
Method: as §1

[7] = target: T1, recombinant human DLL4 (Cat# …); assay: ELISA, DLL4 coated, Fab 0.74 nM
Method: as §1

[8] = target: T1, recombinant human DLL4 (Cat# …); assay: ELISA, DLL4 coated, Fab 2.22 nM
Method: as §1

[9] = target: T1, recombinant human DLL4 (Cat# …); assay: ELISA, DLL4 coated, Fab 6.67 nM
Method: as §1

Binder | ELISA absorbance at 450 nm [1] | ELISA absorbance at 450 nm [2] | ELISA absorbance at 450 nm [3] | ELISA absorbance at 450 nm [4] | Kd [5] | koff [5] | kon [5] | ELISA absorbance at 450 nm [6] | ELISA absorbance at 450 nm [7] | ELISA absorbance at 450 nm [8] | ELISA absorbance at 450 nm [9]
B1 | 0.59 A450 | 0.79 A450 | 1 A450 | 0.43 A450 |  |  |  |  |  |  | 
B2 | 0.49 A450 | 0.69 A450 | 0.99 A450 | 0.42 A450 |  |  |  |  |  |  | 
B3 | 0.86 A450 | 0.9 A450 | 1.05 A450 | 0.65 A450 |  |  |  |  |  |  | 
B4 | 0.73 A450 | 0.91 A450 | 1.09 A450 | 0.5 A450 |  |  |  |  |  |  | 
B5 |  |  |  |  | 32.7 nM | 0.0101 s⁻¹ | 351000 M⁻¹ s⁻¹ |  |  |  | 
B6 |  |  |  |  |  |  |  | 0.458 A450 | 0.046 A450 | 0.04 A450 | 0.282 A450
B7 |  |  |  |  |  |  |  | 0.39 A450 | 0.028 A450 | 0.069 A450 | 0.212 A450
B8 |  |  |  |  |  |  |  | 0.863 A450 | 0.27 A450 | 0.463 A450 | 0.739 A450
B9 |  |  |  |  |  |  |  | 1.01 A450 | 0.368 A450 | 0.594 A450 | 0.88 A450
B10 |  |  |  |  |  |  |  | 1.05 A450 | 0.398 A450 | 0.557 A450 | 0.916 A450
B11 |  |  |  |  |  |  |  | 0.391 A450 | 0.024 A450 | 0.069 A450 | 0.232 A450
